Data as given in paper PMC3696110, “Hsp70 Oligomerization Is Mediated by an Interaction between the Interdomain Linker and the Substrate-Binding Domain” (PLoS ONE, 2013).
Values joined by “and” are separate entries in the source; they are usually repeats but may differ in a detail not shown here. Equal values may be shown once.

Key:
[1] = target: T1, FL-Hsp70 (Homo sapiens, UniProt P0DMV8); assay: Fluorescence titration of dansyl-NR peptide binding; conditions: 2 µM dansyl-NR peptide, fluorescence ex 330 nm; 50 mM Tris pH 7.4, 150 mM KCl, 5 mM MgCl2; 1 h at 25°C; single-site fit; average of two samples; read-out: Kd (apparent dissociation constant)
T1 construct: 35% of full-length Hsp70 (FL-Hsp70) exists as oligomeric species; hexa-His (N, cleaved yes); made in house; host or cells: E. coli BL21 (DE3) Gold, pET-28b
Experimental: (§1) The interaction between the different Hsp70 variants and the NR peptide was studied in 50 mM Tris buffer at pH 7.4, with 150 mM KCl, and 5 mM MgCl2 using fluorescence spectroscopy by titrating different concentrations of chaperone into a solution containing 2 µM dansyl-NR peptide (N-terminally labeled; Genemed Synthesis Inc., San Antonio, TX, USA) after incubating the mixtures for 1 h at 25°C. The concentration of dansyl-NR peptide was calculated using an extinction coefficient at 327 nm of 4300 M^-1.cm^-1 [39]. The fluorescence emission spectrum of each sample was recorded from 400 to 630 nm after excitation at 330 nm, and the data reported correspond to the average intensity at the maximum emission wavelength of two different samples for which ten spectra were recorded. The increase in fluorescence signal was plotted as a function of chaperone concentration (Figure S2), and analyzed assuming single-site binding using the following equation:
(§2) ΔF=ΔFmaxΘL=ΔFmax/2LT[(PT+LT+Kd)−(PT+LT+Kd)^2−4PTLT] (1)
(§3) where ΘL is the fraction of bound ligand, ΔF is the increase in fluorescence intensity observed at a given concentration of Hsp70 variant, ΔF max is the increase in fluorescence at saturation, L T and P T are the total ligand and protein concentration respectively, and K d is the apparent dissociation constant of the complex. The fraction of bound ligand was plotted as a function of protein concentration in order to compare affinities between the different chaperone variants.

[2] = target: T2, SBD641 (Homo sapiens, UniProt P0DMV8); assay: as above; conditions: 2 µM dansyl-NR peptide, fluorescence ex 330 nm; 50 mM Tris pH 7.4, 150 mM KCl, 5 mM MgCl2; 1 h at 25°C; single-site fit; average of two samples; read-out: Kd (apparent dissociation constant)
T2 construct: SBD641 (384-641), corresponding to the full-length SBD; hexa-His (N, cleaved yes); made in house; host or cells: E. coli BL21 (DE3) Gold, pET-28b
Experimental: as §1, §2, §3

[3] = target: T3, ΔLSBD641 (Homo sapiens, UniProt P0DMV8); assay: as above; conditions: 2 µM dansyl-NR peptide, fluorescence ex 330 nm; 50 mM Tris pH 7.4, 150 mM KCl, 5 mM MgCl2; 1 h at 25°C; single-site fit; average of two samples; read-out: Kd (apparent dissociation constant)
T3 construct: ΔLSBD641 (394-641), corresponding to SBD641 without the first ten residues of the interdomain linker; hexa-His (N, cleaved yes); made in house; host or cells: E. coli BL21 (DE3) Gold, pET-28b
Experimental: as §1, §2, §3

[4] = target: T4, SBD556 (Homo sapiens, UniProt P0DMV8, L542Y); assay: as above
T4 construct: SBD556 (384-556), which lacks helices C, D and E and the C-terminal disordered region; hexa-His (N, cleaved yes); made in house; host or cells: E. coli BL21 (DE3) Gold, pET-28b
Experimental: as §1, §2, §3

[5] = previously reported; ref [S3]; cited from earlier work
Experimental: Supplementary file pone.0067961.s005.tif: Figure S4 Concentration dependency of the analytical SEC chromatograms of the 'C-term' variant. The protein concentrations used were 1µM (black line), 2µM (orange line), 5 µM (pink line), 10 µM (cyan line), 70 µM (red line) and 125 µM (green line). Essentially the same elution profile was found for all the protein concentrations used. At the top the chromatogram the previously reported Stokes radii of the standard proteins used to calibrate the column are reported: conalbumin (40.4 Å), ovalbumin (30.5 Å), carbonic anhydrase (23.6 Å) [S3], ribonuclease ...

[6] = SEC/DLS of oligomeric species; format: physicochemical, human; conditions: SEC, ΔLSBD641 at the same protein concentration, no NR peptide
Experimental: Analytical SEC was performed at 4 °C using a Superdex 75 10/300 GL column (GE Healthcare LifeSciences, Little Chalfont, U.K.), which had previously been calibrated using a mixture of standard proteins (Gel Filtration LMW Calibration Kit; GE Healthcare LifeSciences, Little Chalfont, U.K.). Typically, samples of the various constructs contained 70 µM of protein in 50 mM Tris buffer at pH 7.4, with 150 mM KCl, 5 mM MgCl2 and were incubated for 15 min (unless otherwise specified) at room temperature before being loaded onto the column for analysis. To evaluate the reversibility of the oligomerization process, the different elution peaks obtained for each protein variant were subsequently analyzed after concentrating the different fractions using AmiconUltra-0.5, Ultracel-3 Membrane, 3 kDa (Millipore, Bedford, MA, USA). […]
Dynamic light scattering. Representative size distributions of SBD641 at different protein concentrations in Tris 50 mM, pH 7.4, 150 mM KCl, 5 mM MgCl2 were recorded at 25 °C on the Zetasizer Nano ZS instrument (Malvern Instruments Ltd.) at 633 nm after 1 h of incubation at room temperature. […] Some samples were analyzed after 1 h and 4 h incubation at room temperature and the same intensity size distributions were obtained. The samples were centrifuged for 15 min at 13200 rpm to remove dust particles and the scattered light was detected at an angle of 173°. […]

[7] = nESI-MS relative populations of oligomeric forms; format: physicochemical, human; conditions: 6-15 µM protein, 150 mM ammonium acetate, pH 7.4, estimated error 5% (SD of 3-4 independent experiments)
Experimental: Prior to MS analysis, samples were buffer exchanged into 150 mM ammonium acetate, pH 7.4, using Micro Bio-spin 6 columns (Bio-Rad, Digilab Division, Cambridge, MA, USA). For all the experiments protein concentrations ranging from 6 to 18 µM were used. In the case of the substrate binding experiments, proteins were analyzed in the presence of a 1: 1 molar ratio of the NR peptide; this substrate concentration, lower than in the SEC experiments, was chosen to ensure adequate resolution of the various charge state series, which is critical for unambiguous assignment of substrate-bound states. Due to suppression effects during nESI ionization, a relatively limited set of molar ratios could be investigated by in this way.
nESI-MS spectra were obtained according to a previously published protocol on an orthogonal time-of-flight mass spectrometer with a Z-spray source (LCT, Waters, Manchester, UK) in positive ion mode using the following parameters: capillary voltage, 1500 V; sample cone voltage, 120 V (unless otherwise specified); extraction cone voltage, 1V; and ion transfer stage pressure, 8.8 mbar. Spectra were calibrated externally using a 33 mg/ml solution of cesium iodide. Data were acquired and processed with MassLynx software (Waters, Manchester, UK), and are shown with minimal smoothing and without background subtraction. The relative abundances of the different oligomeric states were estimated from the intensities of the most abundant charge states for each construct and are expressed as a percentage of the total intensity.

[8] = Analytical SEC relative populations of oligomeric forms; format: physicochemical, human; conditions: Superdex 75, 4 °C, 50 mM Tris pH 7.4, 150 mM KCl
Experimental: Analytical SEC was performed at 4 °C using a Superdex 75 10/300 GL column (GE Healthcare LifeSciences, Little Chalfont, U.K.), which had previously been calibrated using a mixture of standard proteins (Gel Filtration LMW Calibration Kit; GE Healthcare LifeSciences, Little Chalfont, U.K.). Typically, samples of the various constructs contained 70 µM of protein in 50 mM Tris buffer at pH 7.4, with 150 mM KCl, 5 mM MgCl2 and were incubated for 15 min (unless otherwise specified) at room temperature before being loaded onto the column for analysis. To evaluate the reversibility of the oligomerization process, the different elution peaks obtained for each protein variant were subsequently analyzed after concentrating the different fractions using AmiconUltra-0.5, Ultracel-3 Membrane, 3 kDa (Millipore, Bedford, MA, USA). A similar analysis was also performed at 6 µM concentration for all the protein variants to allow for a direct comparison between the results obtained by SEC and MS experiments.
The influence of substrate binding on the oligomerization properties of all the variants was examined by using the well-characterized Hsp70 substrate, the NR peptide (NRLLLTG, Genemed Synthesis Inc., San Antonio, TX, USA). A 14-fold excess of the peptide was added in each case to a fresh protein sample, incubated for 1 h at room temperature, unless otherwise specified, and then loaded onto the Superdex 75 10/300 GL column for analysis. The relative quantities of the different protein species were estimated by analysing the chromatographic profile using a Gaussian function for each elution peak (OriginPro 8, Originlab, Northampton, MA, USA) and measuring the relative area under each peak.

[9] = Thermal denaturation monitored by far-UV CD; format: physicochemical, human
Experimental: Protein structural stability was analyzed by monitoring the CD signal at 222 nm upon thermal denaturation. Thermal runs were performed from 5 to 90 °C at a rate of 1 °C. min^-1. Data points were acquired every 0.1 °C with a response time of 2 s and a bandwidth of […]. After thermal denaturation, each protein sample was cooled to the starting temperature, and a second denaturation curve recorded in order to analyse the degree of reversibility of the denaturation process. Analysis of the thermal unfolding curves was performed assuming a three-state unfolding model.

[10] = Secondary structure content from far-UV CD; format: physicochemical, human; conditions: K2D software; 20 µM protein, 7 mM Tris pH 7.4, 170 mM KCl, 5 mM MgCl2; 25 °C
Experimental: Far-UV CD spectra for all protein variants were recorded using a Jasco J-810 spectropolarimeter equipped with a Peltier holder, using a 0.1 cm path length cuvette. Typically, samples contained 20 µM protein in 7 mM Tris buffer at pH 7.4, containing 170 mM KCl and 5 mM MgCl2. The far-UV CD spectra of all the variants in their native, thermally denatured and refolded states were recorded from 198 to 250 nm, and the spectrum of the buffer was systematically subtracted from the spectra of all protein samples. The secondary structure content was estimated from the far-UV CD spectrum for each protein variant using K2D software.

[11] = 70 µM protein, 5 mM MgCl2, 15 min at room temperature, estimated error 3.5% (SD of 3-4 independent experiments)
[12] = 6-15 µM protein, 5 mM MgCl2, estimated error 3.5% (SD of 3-4 independent experiments)

T2 sequence (P0DMV8 384-641): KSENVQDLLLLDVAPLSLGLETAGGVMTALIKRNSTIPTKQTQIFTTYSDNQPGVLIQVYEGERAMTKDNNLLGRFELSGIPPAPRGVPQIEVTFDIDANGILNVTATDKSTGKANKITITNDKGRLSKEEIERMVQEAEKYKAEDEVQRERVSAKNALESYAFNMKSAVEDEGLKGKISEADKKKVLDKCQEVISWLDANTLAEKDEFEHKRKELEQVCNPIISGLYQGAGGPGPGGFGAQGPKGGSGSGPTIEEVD
T1 sequence (P0DMV8 whole entry): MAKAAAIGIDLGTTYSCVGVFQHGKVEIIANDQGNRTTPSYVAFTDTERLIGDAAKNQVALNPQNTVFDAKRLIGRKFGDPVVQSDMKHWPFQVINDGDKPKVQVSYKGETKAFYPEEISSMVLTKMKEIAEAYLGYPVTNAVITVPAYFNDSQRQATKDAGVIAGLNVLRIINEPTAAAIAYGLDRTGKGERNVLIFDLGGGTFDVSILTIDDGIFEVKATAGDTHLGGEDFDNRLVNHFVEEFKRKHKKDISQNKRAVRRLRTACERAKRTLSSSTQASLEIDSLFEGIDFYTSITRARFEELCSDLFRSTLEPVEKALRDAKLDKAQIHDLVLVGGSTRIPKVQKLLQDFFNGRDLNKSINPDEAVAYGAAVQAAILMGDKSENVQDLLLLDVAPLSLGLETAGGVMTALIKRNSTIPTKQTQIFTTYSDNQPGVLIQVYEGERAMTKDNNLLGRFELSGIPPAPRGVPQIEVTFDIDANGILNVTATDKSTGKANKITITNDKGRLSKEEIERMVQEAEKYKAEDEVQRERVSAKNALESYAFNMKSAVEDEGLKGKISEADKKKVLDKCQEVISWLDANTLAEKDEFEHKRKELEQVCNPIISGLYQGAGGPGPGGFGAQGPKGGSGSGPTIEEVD
T4 sequence (P0DMV8 384-556 L542Y): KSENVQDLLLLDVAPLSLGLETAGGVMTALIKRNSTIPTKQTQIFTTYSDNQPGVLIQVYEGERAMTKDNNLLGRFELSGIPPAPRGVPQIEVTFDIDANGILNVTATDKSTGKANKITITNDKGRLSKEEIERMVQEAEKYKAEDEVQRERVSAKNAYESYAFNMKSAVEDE
T3 sequence (P0DMV8 395-641, stated change not applied): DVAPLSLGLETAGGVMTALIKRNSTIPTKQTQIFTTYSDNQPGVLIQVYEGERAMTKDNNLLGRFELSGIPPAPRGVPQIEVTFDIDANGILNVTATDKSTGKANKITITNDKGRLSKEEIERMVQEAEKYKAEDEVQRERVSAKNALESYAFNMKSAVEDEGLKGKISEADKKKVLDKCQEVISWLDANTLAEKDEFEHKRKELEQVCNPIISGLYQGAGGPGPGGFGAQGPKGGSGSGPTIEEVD

Molecule: CC(C)C[C@H](NC(=O)[C@H](CC(C)C)NC(=O)[C@H](CCCNC(=N)N)NC(=O)[C@@H](N)CC(N)=O)C(=O)N[C@@H](CC(C)C)C(=O)N[C@H](C(=O)NCC(=O)O)[C@@H](C)O [NR peptide, NRLLLTG]
- Kd [1]: 9 µM and 8 to 10 µM
- Kd [2]: 11 µM and 1 to 10 µM
- Kd [3]: 8 ± 2 µM
- Kd ([4]; 2 µM dansyl-NR peptide, fluorescence ex 330 nm, 50 mM Tris pH 7.4, 150 mM KCl, 5 mM MgCl2, 1 h at 25°C, single-site fit, average of two samples, read-out: Kd (apparent dissociation constant)): 53 ± 16 µM
- Reduction of fluorescence intensity at saturation (Fmax) ([4]; fluorescence titration, SBD556 vs other chaperone variants): ~25%

Molecule: carbonic anhydrase [reference compound]
- Stokes radius of SEC standard protein [5]: 23.6 Å

Molecule: ΔLSBD641: SBD641 without the first ten residues of the interdomain linker (SENVQDLLLL), residues 394-641
- Oligomer fraction [6]: ca. 0.1
- Dimer population [7]: 8%
- Monomer population [7]: > 90%
- Total oligomer population [7]: 8%
- Trimer population [7]: 0%
- Monomer population ([7]; listed as ∆LSBD641): 92%
- Dimer population [8, 11]: 14%
- Monomer population [8, 11]: 86%
- Total oligomer population [8, 11]: 14%
- Dimer population [8, 12]: 9%
- Monomer population [8, 12]: > 90%
- Total oligomer population [8, 12]: 9%
- Monomer population ([8]; 6-15 µM protein, 5 mM MgCl2, estimated error 3.5% (SD of 3-4 independent experiments), listed as ∆LSBD641): 91%
- ∆Hm, 1st transition ([9]; CD 222 nm, 20 µM protein, 7 mM Tris pH 7.4, 170 mM KCl, 5 mM MgCl2, three-state fit (C-term two-state), SE of fit): 45.6 ± 2.4 kcal/mol
- ∆Hm, 2nd transition ([9]; CD 222 nm, 20 µM protein, 7 mM Tris pH 7.4, 170 mM KCl, 5 mM MgCl2, three-state fit, SE of fit): 61.0 ± 1.1 kcal/mol
- Tm, 1st transition ([9]; CD 222 nm, 5 to 90 °C at 1 °C/min, 20 µM protein, 7 mM Tris pH 7.4, 170 mM KCl, 5 mM MgCl2, three-state fit (C-term two-state), SE of fit): 44.9 ± 0.3 °C
- Tm, 2nd transition ([9]; CD 222 nm, 5 to 90 °C at 1 °C/min, 20 µM protein, 7 mM Tris pH 7.4, 170 mM KCl, 5 mM MgCl2, three-state fit, SE of fit): 72.3 ± 0.1 °C
- Degree of irreversibility of overall protein thermal denaturation ([9]; far-UV CD): exactly the same behaviour
- Random-coil content estimated from far-UV CD [10]: 47%
- α-helix content estimated from far-UV CD [10]: 35%
- β-sheet content estimated from far-UV CD [10]: 18%
